In article PMC4624954, “Delineating the Tes Interaction Site in Zyxin and Studying Cellular Effects of Its Disruption” (PLoS ONE, 2015):

Target: T1, Zyx FL WT-GFP (human, UniProt Q15942 1-572)
T1 sequence (looked up): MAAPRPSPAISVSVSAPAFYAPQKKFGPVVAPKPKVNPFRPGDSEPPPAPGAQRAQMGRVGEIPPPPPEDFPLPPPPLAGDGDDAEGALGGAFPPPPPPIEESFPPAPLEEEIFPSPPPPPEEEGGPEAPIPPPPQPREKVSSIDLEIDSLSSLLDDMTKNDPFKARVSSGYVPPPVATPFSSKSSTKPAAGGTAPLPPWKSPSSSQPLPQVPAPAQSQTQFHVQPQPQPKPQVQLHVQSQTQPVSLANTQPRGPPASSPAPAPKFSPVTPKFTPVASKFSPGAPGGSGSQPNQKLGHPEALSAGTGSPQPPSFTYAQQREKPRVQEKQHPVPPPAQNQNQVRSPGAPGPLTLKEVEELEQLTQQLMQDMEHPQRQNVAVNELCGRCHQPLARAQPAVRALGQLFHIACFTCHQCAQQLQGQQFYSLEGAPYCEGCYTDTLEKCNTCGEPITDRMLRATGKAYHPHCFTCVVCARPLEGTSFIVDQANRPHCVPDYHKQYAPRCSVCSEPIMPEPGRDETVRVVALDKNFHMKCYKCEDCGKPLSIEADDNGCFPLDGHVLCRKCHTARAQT
Test: cell-based or functional assay

B1: Tes FL-GFP (natural protein, UniProt Q9UGI8 1-421, looked up)
chain: MDLENKVKKMGLGHEQGFGAPCLKCKEKCEGFELHFWRKICRNCKCGQEEHDVLLSNEEDRKVGKLFEDTKYTTLIAKLKSDGIPMYKRNVMILTNPVAAKKNVSINTVTYEWAPPVQNQALARQYMQMLPKEKQPVAGSEGAQYRKKQLAKQLPAHDQDPSKCHELSPREVKEMEQFVKKYKSEALGVGDVKLPCEMDAQGPKQMNIPGGDRSTPAAVGAMEDKSAEHKRTQYSCYCCKLSMKEGDPAIYAERAGYDKLWHPACFVCSTCHELLVDMIYFWKNEKLYCGRHYCDSEKPRCAGCDELIFSNEYTQAENQNWHLKHFCCFDCDSILAGEIYVMVNDKPVCKPCYVKNHAVVCQGCHNAIDPEVQRVTYNNFSWHASTECFLCSCCSKCLIGQKFMPVEGMVFCSVECKKRMS
quantity of Tes FL-GFP in focal adhesions of zyxin-null fibroblasts with Zyx FL WT-DsRed against the DsRed control (confocal immunofluorescence): 2 fold
